# Laboratory results as given in US20250289873A1 (published 2025).
# Where two headings read alike, the source gives them in different places.
# T1: FHR-4 (coated on plate, C3 convertase assembly assay) (UniProt Q92496 20-331)
# T1 chain: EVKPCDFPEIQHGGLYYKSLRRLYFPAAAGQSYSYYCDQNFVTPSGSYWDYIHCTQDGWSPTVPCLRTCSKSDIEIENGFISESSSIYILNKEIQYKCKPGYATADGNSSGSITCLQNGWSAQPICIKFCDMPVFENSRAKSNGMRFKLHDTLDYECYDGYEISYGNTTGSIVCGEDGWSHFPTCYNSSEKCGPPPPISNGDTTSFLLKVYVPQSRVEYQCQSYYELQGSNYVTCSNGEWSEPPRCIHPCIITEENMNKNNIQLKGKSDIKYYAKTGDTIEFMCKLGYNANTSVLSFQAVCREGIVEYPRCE
# T2: hCFHR4b
# T2 chain: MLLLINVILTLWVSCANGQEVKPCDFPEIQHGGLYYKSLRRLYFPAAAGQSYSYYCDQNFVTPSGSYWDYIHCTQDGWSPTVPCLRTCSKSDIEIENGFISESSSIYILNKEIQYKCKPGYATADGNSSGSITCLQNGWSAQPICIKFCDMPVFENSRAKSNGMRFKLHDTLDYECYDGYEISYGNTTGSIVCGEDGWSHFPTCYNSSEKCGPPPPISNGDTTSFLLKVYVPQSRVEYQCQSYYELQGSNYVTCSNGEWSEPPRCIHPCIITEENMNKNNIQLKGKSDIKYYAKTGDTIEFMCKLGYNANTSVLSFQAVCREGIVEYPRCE
# B1: ATX-P-569 (antibody, V domains shown)
# VH: EVQLVESGGGLAQFGRSLRLSCAASGFTFDDYAMHWLRQAPGMGLEWVSGISWNSGSIGYADSVKGRFTIARDNAKNSVHLQMNSLRAEDTALYYCAKDIGNGYTKGDVFDIWGQGTMVTVSS
# VL: DIQMTQSPSTLSASVGDSVTITCRASQNIITWLAWYQQKPGKAPNLLIYKASSLESGVPSRFSGSGSGTEFTLTISSLQPDDFATYYCQQYSSYSYTFGQGTKLEIKR
# Assays:
# [1] = target: hCFHR4; test: SPR kinetics
# [2] = target: T1, FHR-4 (coated on plate, C3 convertase …); test: C3 convertase assembly assay
# [3] = target: T2, hCFHR4b; test: SPR kinetics
# [4] = target: T1, FHR-4 (coated on plate, C3 convertase …); test: C3 convertase assembly assay
binder,measurement,setting,value
B1,Kd,[1],1.44 nM
same,IC50,[2],12.1 nM
same,Kd,[3],1.44 nM
same,IC50,[4],12 nM
